Source: publication PMC8567202, “Phosphoinositide-binding activity of Smad2 is essential for its function in TGF-β signaling” (The Journal of Biological Chemistry, 2021)
Substitutions are numbered along the chain they refer to. Names and notes keep the numbering of the source.

B1: Smad2-W422A: W422A mutant of full-length Smad2; specific PI(4,5)P2 binding-compromised (protein)
chain: MSSILPFTPPVVKRLLGWKKSAGGSGGAGGGEQNGQEEKWCEKAVKSLVKKLKKTGRLDELEKAITTQNCNTKCVTIPSTCSEIWGLSTANTVDQWDTTGLYSFSEQTRSLDGRLQVSHRKGLPHVIYCRLWRWPDLHSHHELKAIENCEYAFNLKKDEVCVNPYHYQRVETPVLPPVLVPRHTEILTELPPLDDYTHSIPENTNFPAGIEPQSNYIPETPPPGYISEDGETSDQQLNQSMDTGSPAELSPTTLSPVNHSLDLQPVTYSEPAFWCSIAYYELNQRVGETFHASQPSLTVDGFTDPSNSERFCLGLLSNVNRNATVEMTRRHIGRGVRLYYIGGEVFAECLSDSAIFVQSPNCNQRYGWHPATVCKIPPGCNLKIFNNQEFAALLAQSVNQGFEAVYQLTRMCTIRMSFVKGAGAEYRRQTVTSTPCWIELHLNGPLQWLDKVLTQMGSPSVRCSSMS
modifications: left off: His6, N-terminal, state not stated
B2: Smad2-Y426A: Y426A mutant of full-length Smad2; specific PI(4,5)P2 binding-compromised (protein)
chain: B1 chain with A422W, Y426A
modifications: left off: His6, N-terminal, state not stated
B3: Smad2 WT: bacterially expressed full-length Smad2 wild-type (protein)
chain: B1 chain with A422W
modifications: left off: His6, N-terminal, state not stated
notes: bacterially expressed full-length Smad2 wild-type
B4: Smad2-K420A: K420A mutant of full-length Smad2; predominantly TβRI binding-compromised (protein)
chain: B1 chain with K420A, A422W
modifications: left off: His6, N-terminal, state not stated
B5: Smad2- R427A/R428A: double mutant of full-length Smad2; PI(4,5)P2 and TβRI binding-compromised (protein)
chain: B1 chain with A422W, R427A, R428A
modifications: left off: His6, N-terminal, state not stated

Assay: SPR membrane binding to POPC/POPS vesicles
Settings: for binding to POPC/POPS (80:20): RU/RUmax, 100 nM protein
Source text: It has been generally thought that Smad2 and Smad3 are targeted to the activated TGF-β signaling complex by direct interaction with TβRI ([1], [2]) or via SARA ([7]). However, it has been shown that many cytosolic proteins that are targeted to membrane proteins or membrane-anchored signaling complexes have affinity for membrane lipids ([14]), phosphoinositides (PtdInsPs) in particular, and that their membrane recruitment is mediated by coincident lipid–protein and protein–protein interactions ([15], [16]). For most of these proteins, their PtdInsP specificity directs their membrane targeting behaviors: e.g., PI(4,5)P2-specific proteins are recruited to PM where the highest concentration of PI(4,5)P2 is found, whereas PI(3)P-specific proteins are targeted to PI(3)P-rich EEs ([17], [18]). To resolve uncertainty about the functional location of the activated TGF-β signaling complex, we thus explored the possibility that lipid-binding activity of Smad2 may play a role in specific targeting of Smad2 to the active TGF-β receptor complex either at the PM or at EEs. Lipid-binding activity of Smad proteins has not been reported to date. We thus measured the binding of bacterially expressed Smad2 to large unilamellar vesicles (LUVs) containing various lipids by surface plasmon resonance (SPR) analysis ([19], [20]). Lipid selectivity determined by SPR analysis is typically reported as the relative resonance unit (RU) values for different lipids at a given protein concentration ([21], [22]). Although simple and intuitive, this type of analysis can sometimes yield misleading and erroneous results because some proteins show widely different RU values when bound to different lipid surfaces. Thus, a more reliable parameter that represents the fraction of the membrane bound protein molecules at a given protein concentration would be a normalized value of RU/RUmax where RUmax indicates the maximal RU value when a given lipid surface is saturated with the protein molecules. We thus estimated RUmax for different lipid species by employing the highest protein concentration experimentally feasible (e.g., 1 μM) and determined RU/RUmax for different lipids at the protein concentration that allows robust comparison (e.g., 100 nM). Once the lipid selectivity has been determined by this semiquantitative approach, we then rigorously determined and compared Kd values for selected lipids for more accurate quantitative determination of lipid selectivity.
Figure 1 Membrane-binding properties of Smad2 FL protein and MH2 domain determined by SPR analysis.A, PtdInsP selectivity of Smad2-FL determined using POPC/POPS/PtdInsP (77:20:3 in mole ratio) LUVs coated on the L1 sensor chip. The protein concentration was 100 nM. PIP3 indicates PI(3,4,5)P3. B, determination of Kd for binding of Smad2 FL to different LUVs. The protein concentration was varied from 0 to 500 nM. C, PI(4,5)P2 concentration dependence of membrane binding of Smad2-FL determined using POPC/POPS/PI(4,5)P2 (77-x:20:x, x = 0–5 mol%) LUVs. The protein concentration was 100 nM. D, PtdInsP selectivity of the Smad2 MH2 domain determined using POPC/POPS/PtdInsP (77:20:3 in mole ratio) LUVs. The protein concentration was 100 nM. Normalized RU values (RU/RUmax) were used for all figures but (C) for more accurate determination of PtdInsP selectivity. RUmax values determined for different vesicles at 1 μM Smad2 were: 280 ± 20 for POPC/POPS/PI(4,5)P2 (77:20:3), 370 ± 10 for POPC/POPS/PI(3,4)P2 (77:20:3), 400 ± 15 for POPC/POPS/PI(3,4,5)P3 (or PIP3) (77:20:3), 400 ± 20 for POPC/POPS/PI(3)P (77:20:3), and 380 ± 20 for POPC/POPS (80:20). Only the association phases of the sensorgrams are shown and used for further analysis. Each set of sensorgrams shown in A and D are representatives of >5 independent measurements. Data points shown in B and C are the average ±S.D. values from triplicate measurements. […]

| Molecule | binding to POPC/POPS (80:20) (SPR) | RUmax (POPC/POPS (80:20), 1 μM Smad2) | Kd (SPR, L1 chip, 23 °C, 20 mM Tris, pH 7.4, 0.16 M NaCl, POPC/POPS (80:20), average ±S.D., n = 3, read-out: Kd for lipid binding, PC/PS) |
| --- | --- | --- | --- |
| B1 | much less effects on binding | – | – |
| B2 | much less effects on binding | – | – |
| B3 | – | 380 ± 20 | 560 ± 150 nM |
| B4 | modestly and similarly reduced binding to both vesicles | – | – |
| B5 | much less effects on binding | – | – |
